Consider 24 molecules from US20260209362A1 (VIB VZW, published 2026).

T1: biotinylated recombinant mouse IL-12Rβ2 (mouse, UniProt P97378 24-637, random biotinylated)
T1 construct: Recombinant protein produced in-house, biotinylated; also called mIL-12RB2; mouse IL-12RB2
T1 sequence: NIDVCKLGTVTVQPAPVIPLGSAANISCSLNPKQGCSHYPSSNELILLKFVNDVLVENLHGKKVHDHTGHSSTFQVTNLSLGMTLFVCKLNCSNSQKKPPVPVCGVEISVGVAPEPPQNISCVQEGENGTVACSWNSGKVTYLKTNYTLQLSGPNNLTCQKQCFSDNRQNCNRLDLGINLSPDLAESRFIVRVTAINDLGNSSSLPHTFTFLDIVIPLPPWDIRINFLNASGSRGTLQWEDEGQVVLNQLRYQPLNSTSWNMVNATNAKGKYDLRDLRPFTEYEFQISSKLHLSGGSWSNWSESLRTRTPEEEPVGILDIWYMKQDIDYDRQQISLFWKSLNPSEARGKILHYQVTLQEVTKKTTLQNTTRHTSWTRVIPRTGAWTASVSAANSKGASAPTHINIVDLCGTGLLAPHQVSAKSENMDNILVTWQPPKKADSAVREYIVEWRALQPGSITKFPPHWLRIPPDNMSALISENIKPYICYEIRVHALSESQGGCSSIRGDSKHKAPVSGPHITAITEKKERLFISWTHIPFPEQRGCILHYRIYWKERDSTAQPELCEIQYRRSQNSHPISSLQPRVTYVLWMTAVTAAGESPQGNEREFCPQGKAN

T2: biotinylated recombinant human IL-12Rβ2 (human, UniProt Q99665 24-622, random biotinylated)
T2 construct: Recombinant protein produced in-house, biotinylated; also called hIL-12RB2; human IL-12RB2
T2 sequence: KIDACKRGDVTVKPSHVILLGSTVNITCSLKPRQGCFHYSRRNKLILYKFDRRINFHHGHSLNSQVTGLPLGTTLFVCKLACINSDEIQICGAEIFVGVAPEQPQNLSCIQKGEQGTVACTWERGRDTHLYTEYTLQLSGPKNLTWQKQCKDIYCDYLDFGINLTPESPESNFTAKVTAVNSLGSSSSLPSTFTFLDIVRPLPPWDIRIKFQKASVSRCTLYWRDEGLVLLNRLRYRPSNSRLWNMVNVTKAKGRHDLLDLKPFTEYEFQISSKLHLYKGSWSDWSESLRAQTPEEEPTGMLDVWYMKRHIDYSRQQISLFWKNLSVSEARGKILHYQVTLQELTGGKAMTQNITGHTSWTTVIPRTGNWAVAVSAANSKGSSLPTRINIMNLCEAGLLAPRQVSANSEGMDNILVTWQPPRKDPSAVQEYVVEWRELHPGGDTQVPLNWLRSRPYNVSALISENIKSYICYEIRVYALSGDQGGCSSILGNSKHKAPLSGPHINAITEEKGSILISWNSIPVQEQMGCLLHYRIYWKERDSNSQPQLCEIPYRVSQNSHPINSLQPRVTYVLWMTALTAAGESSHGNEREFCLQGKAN

B1: anti-IL-12Rβ2 VHH clone 20542 (VHH, not shown: small tags and cut ends)
VHH: QVQLQESGGGLVQAGGSLRLSCAASGRTFSTYAMGWFRQAPGKEREFVAAISWSGGRTYYADSVKGRFTISRDNAKNTAYLQMSSLIPEDTAVYYCAADPADYTGSYYYQRSYDYWGQGTQVTVSS
notes: tested as periplasmic extract; also called 3CAMS12
B2: anti-IL-12Rβ2 VHH clone 20466 (VHH, not shown: small tags and cut ends)
VHH: B1 VHH with G16D, A24P, A50G, A79V, S84N, I87K, A101M, T104S, Y107L, Y109A
notes: tested as periplasmic extract; also called 2CAM2
B3: anti-IL-12Rβ2 VHH clone 20553 (VHH, not shown: small tags and cut ends)
VHH: B1 VHH with A14P
notes: tested as periplasmic extract; also called 3CAMS73
B4: anti-IL-12Rβ2 VHH clone 20471 (VHH, not shown: small tags and cut ends)
VHH: QVQLQESGGGLVQAGGSLRLSCAASGRTFVTYAMGWFRQAPGKEREFVAAISWSGGRLYYADSAKGRFTISRDNAKNTVYLQMNSLKPEDTAVYYCAADPQDYTGRDYQRRRYDYWGQGTQVTVSS
notes: tested as periplasmic extract; also called 2CAM11
B5: anti-IL-12Rβ2 VHH clone 20515 (VHH, not shown: small tags and cut ends)
VHH: B1 VHH with T69A, S84N, I87K, A101S, T104M, Y109G, Q110A, S112R
notes: tested as periplasmic extract; also called 3CAM79
B6: anti-IL-12Rβ2 VHH clone 20532 (VHH, not shown: small tags and cut ends)
VHH: B4 VHH with A64V
notes: tested as periplasmic extract; also called 2CAMS19
B7: anti-IL-12Rβ2 VHH clone 20473 (VHH, not shown: small tags and cut ends)
VHH: QVQLQESGGGLVQAGDSLRLSCAASGRTFSSYTMGWFRQAPGKEREFVARISQDGGSTYYADSMKGRFTVARDNAKNTVYLQMNSLKPEDTAVYYCAADMIKWGLRVGVDSFKYWGQGTQVTVSS
notes: tested as periplasmic extract; also called 2CAM14
B8: anti-IL-12Rβ2 VHH clone 20476 (VHH, not shown: small tags and cut ends)
VHH: QVQLQESGGGSVQAGGSLRLSCAVFGLSFKDYSMSWFRQAPGKEREFVAGISSGGSWIGDITSYADSVKGRFTISRDNAKNMIYLQMNSLKPDDTGVYYCAAASYGTRYYVGSTANEYTTWGQGTQVTVSS
notes: tested as periplasmic extract; also called 2CAM20
B9: anti-IL-12Rβ2 VHH clone 20533 (VHH, not shown: small tags and cut ends)
VHH: QVQLQESGGGLVQAGGSLTLSCTASGRTFSSYTTGWFRQAPGKEREFVAGISSGGSWIGDITSYADSVKGRFTISRDNAKNMIYLQMNSLKPDDTGVYYCAAASYGTRYYVGSTANEYTTWGQGTQVTVSS
notes: tested as periplasmic extract; also called 2CAMS26
B10: anti-IL-12Rβ2 VHH clone 20479 (VHH, not shown: small tags and cut ends)
VHH: QVQLQESGGGLVQTGGSLRLSCAASGRTFSNSVMGWFRQAPGKEREFVAALMWSAGSEFYTDSVKGRFSISGDGAKNTVYLQMNSLKAEDTAVYYCAAKNPPHRWSDIGKSPHYEYWGQGTQVTVSS
notes: tested as periplasmic extract; also called 2CAM33
B11: anti-IL-12Rβ2 VHH clone 20484 (VHH, not shown: small tags and cut ends)
VHH: B10 VHH with T14P
notes: tested as periplasmic extract; also called 2CAM42
B12: anti-IL-12Rβ2 VHH clone 20483 (VHH, not shown: small tags and cut ends)
VHH: B10 VHH with T14A, M34I, M52S, T61V, V64F, G72R, G74N, A88P, H113Q, E115A
notes: tested as periplasmic extract; also called 2CAM41
B13: anti-IL-12Rβ2 VHH clone 20496 (VHH, not shown: small tags and cut ends)
VHH: B10 VHH with T14A, F29L
notes: tested as periplasmic extract; also called 2CAM71
B14: anti-IL-12Rβ2 VHH clone 20467 (VHH, not shown: small tags and cut ends)
VHH: QVQLQESGGGLVQAGGSLRLSCAPSGRTFSTLAMAWFRQAPGKEREVVATISWSGGRTYYADSVKGRFTISRDNAKNTAYLQMNSLRPDDTAVYYCAARGSDYGSYDYWGQGTQVTVSS
notes: tested as periplasmic extract; also called 2CAM3
B15: anti-IL-12Rβ2 VHH clone 20477 (VHH, not shown: small tags and cut ends)
VHH: B14 VHH with L32Y, A35G, P41L, T58I, A61T, S101T, S105A, Y106W, D107E
notes: tested as periplasmic extract; also called 2CAM27
B16: anti-IL-12Rβ2 VHH clone 20486 (VHH, not shown: small tags and cut ends)
VHH: B14 VHH with Y80F, G100E
notes: tested as periplasmic extract; also called 2CAM46
B17: anti-IL-12Rβ2 VHH clone 20555 (VHH, not shown: small tags and cut ends)
VHH: B14 VHH with A35G, D73N, S85N, G100E, S101T, S105A
notes: tested as periplasmic extract; also called 3CAMS81
B18: anti-IL-12Rβ2 VHH clone 20489 (VHH, not shown: small tags and cut ends)
VHH: B14 VHH with A14P, S17P, Y80F, G100E
notes: tested as periplasmic extract; also called 2CAM50
B19: anti-IL-12Rβ2 VHH clone 20512 (VHH, not shown: small tags and cut ends)
VHH: B14 VHH with A23T, A35G, D62S, G66S, S101T, S105A
notes: tested as periplasmic extract; also called 3CAM57
B20: anti-IL-12Rβ2 VHH clone 20474 (VHH, not shown: small tags and cut ends)
VHH: QVQLQESGGGLVQAGGSLRLSCAASGFTFDDYTIGWFRQAPGKEREFVAALSWSAGSTFFTDSVKDRFSISRDNAKNTVLLQMNSLKPEDTAVYYCAAKNPPHRWSDITKSLQYAYWGQGTQVTVSS
notes: tested as periplasmic extract; also called 2CAM16
B21: anti-IL-12Rβ2 VHH clone 20468 (VHH, not shown: small tags and cut ends)
VHH: QVQLQESGGGLVQAGGSLRLSCVASGRTFSSYGMGWFRQAPGKEREFVTGISSAGSWIGDITSYADSVKGRFTISRDNAKNILYLQMNSLKPEDTAVYYCAAAYHGSRYYVGSTANEYTTWGQGTQVTVSS
notes: tested as periplasmic extract; also called 2CAM6
B22: anti-IL-12Rβ2 VHH clone 20530 (VHH, not shown: small tags and cut ends)
VHH: B21 VHH with G16D, V23A, S31N, G33N, F37L
notes: tested as periplasmic extract; also called 2CAMS7
B23: anti-IL-12Rβ2 VHH clone 20493 (VHH, not shown: small tags and cut ends)
VHH: B21 VHH with G15E
notes: tested as periplasmic extract; also called 2CAM62
B24: anti-IL-12Rβ2 VHH clone 20506 (VHH, not shown: small tags and cut ends)
VHH: QVQLQESGGGLVQVGGSLRLSCAPSGRTFSTYAMGWFRQALGKEREVVATISWSGGRIYYTDSVKGRFTISRDNAKNTAYLQMNSLRPDDADVYYCATRGTDYGAWEYWGQGTQVTVSS
notes: tested as periplasmic extract; also called 3CAM6

Numbering of substitutions follows the chain as printed.

The first experiment addresses T1, biotinylated recombinant mouse IL-12Rβ2. Briefly: ELISA, periplasmic extract on biotinylated mIL-12Rβ2, signal over control wells.
Regarding B1, the “ELISA binding mIL-12RB2/control” value is 4.28 ratio.
Same read-out and setting: under B2 stands 8.48 ratio; under B3, 15.2 ratio; under B4, 5.71 ratio.
On the same count and under the same terms, under B5 stands 12 ratio.
Still for that read-out and setting: next, B6: 3.81 ratio.
As to B7, the “ELISA binding mIL-12RB2/control” value is 36.3 ratio.
On the same count and under the same terms, under B8 stands 7.26 ratio; under B9, 3.96 ratio.
On to B10, for which the “ELISA binding mIL-12RB2/control” value stood at 9.41 ratio.
On the same count and under the same terms, next, B11: 4.86 ratio; B12: 4.68 ratio.
Regarding B13, the “ELISA binding mIL-12RB2/control” value came to 19.5 ratio.
On to B14, for which the “ELISA binding mIL-12RB2/control” value worked out at 14.2 ratio.
The same measure, in the same setting: next, B15: 20.9 ratio; B16: 6.85 ratio; B17: 9.41 ratio.
On to B18, for which the “ELISA binding mIL-12RB2/control” value worked out at 7.88 ratio.
Take B19: the “ELISA binding mIL-12RB2/control” value is 47.4 ratio.
On the same count and under the same terms, under B20 stands 6.43 ratio; under B21, 9.24 ratio; under B22, 3.8 ratio.
Same read-out and setting: under B23 stands 14.5 ratio; under B24, 19.9 ratio.

A further experiment deals with T2, biotinylated recombinant human IL-12Rβ2. Description: ELISA, periplasmic extract on biotinylated hIL-12Rβ2, signal over control wells. In general terms: An ELISA detects its analyte on a solid surface through an enzyme-linked reagent.
B1: the “ELISA binding hIL-12RB2/control” value worked out at 0.849 ratio.
On the same count and under the same terms, next, B2: 1.03 ratio.
Still for that read-out and setting: under B3 stands 0.99 ratio; under B4, 0.991 ratio.
B5: the “ELISA binding hIL-12RB2/control” value came to 1.31 ratio.
Still for that read-out and setting: under B6 stands 0.812 ratio; under B7, 0.971 ratio.
B8: the “ELISA binding hIL-12RB2/control” value turned out to be 0.956 ratio.
As to B9, the “ELISA binding hIL-12RB2/control” value turned out to be 0.994 ratio.
Same read-out and setting: under B10 stands 1.07 ratio; under B11, 1.01 ratio.
Same read-out and setting: under B12 stands 1.01 ratio.
Same read-out and setting: under B13 stands 1.01 ratio; under B14, 1.04 ratio; under B15, 1.02 ratio.
For B16, the “ELISA binding hIL-12RB2/control” value was 0.973 ratio.
Same read-out and setting: under B17 stands 1.06 ratio.
The same measure, in the same setting: next, B18: 0.995 ratio; B19: 1.31 ratio.
On to B20, for which the “ELISA binding hIL-12RB2/control” value stood at 1.01 ratio.
On the same count and under the same terms, under B21 stands 0.955 ratio; under B22, 0.847 ratio.
The same measure, in the same setting: under B23 stands 1.05 ratio.
Same read-out and setting: under B24 stands 0.97 ratio.
